The target of test [1] is SACSIN HEPN domain (recombinant, GST-tag removed) (human). The test is described as follows: native gel or EMSA. On the technique in general: In EMSA bound probe runs differently from free probe, usually more slowly.
Test [2] has the same target. The test is described as follows: SEC. In general terms: SEC sorts molecules by how far they enter the pores of the column.

For the substance “SACSIN HEPN domain (recombinant, GST-tag removed) (domain or fragment)”, the stoichiometry N in test [1] and in test [2] was 2 throughout.

The term stoichiometry N denotes the number of molecules, sites or subunits per partner or assembly.

(Values after paper doi:10.64898/2025.12.18.694329.)
